Consider 18 molecules from patent publication US20160355587A1 (CYTOMX THERAPEUTICS, published 2016).

First the molecules themselves.
T1: human CD166 protein (human, UniProt Q13740 28-526, limits assumed)
T1 construct: Isolated human CD166 protein coated on ELISA plates; also called ALCAM
T1 sequence (looked up): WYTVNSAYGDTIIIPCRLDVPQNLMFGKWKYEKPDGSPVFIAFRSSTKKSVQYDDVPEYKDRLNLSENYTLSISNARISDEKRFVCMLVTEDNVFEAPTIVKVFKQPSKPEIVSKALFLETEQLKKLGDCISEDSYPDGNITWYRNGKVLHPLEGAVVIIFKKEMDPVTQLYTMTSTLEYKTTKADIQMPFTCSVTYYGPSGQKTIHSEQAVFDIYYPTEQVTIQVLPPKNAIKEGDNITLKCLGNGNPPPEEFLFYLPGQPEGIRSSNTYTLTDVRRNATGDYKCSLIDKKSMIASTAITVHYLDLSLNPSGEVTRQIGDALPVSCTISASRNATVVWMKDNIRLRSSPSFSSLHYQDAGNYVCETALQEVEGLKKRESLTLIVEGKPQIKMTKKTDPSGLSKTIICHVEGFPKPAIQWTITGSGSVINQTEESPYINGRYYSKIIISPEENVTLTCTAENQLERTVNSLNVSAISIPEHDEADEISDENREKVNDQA

B1: CD166-16522-2001 (antibody)
chain 1: QITLKESGPTLVKPTQTLTLTCTFSGFSLSTYGMGVGWIRQPPGKALEWLANIWWSEDKHYSPSLKSRLTITKDTSKNQVVLTMTNMDPVDTATYYCVQIDYGNDYAFTYWGQGTLVTVSS
chain 2: QGQSGQGLEGWCLHPLCLWGAGGGGSSGGSISSGLLSGRSDNHGGGSDIVMTQSPLSLPVTPGEPASISCRSSKSLLHSNGITYLYWYLQKPGQSPQLLIYQMSNLASGVPDRFSGSGSGTDFTLKISRVEAEDVGVYYCAQNLELPYTFGQGTKLEIK
B2: CD166-16522.14-2001 (antibody)
chain 1: B1 chain 1
chain 2: B1 chain 2 with W11A
B3: CD166-7614.13-2001 (antibody)
chain 1: B1 chain 1
chain 2: QGQSGQGHPLGGGSSGGSISSGLLSGRSDNHGGGSDIVMTQSPLSLPVTPGEPASISCRSSKSLLHSNGITYLYWYLQKPGQSPQLLIYQMSNLASGVPDRFSGSGSGTDFTLKISRVEAEDVGVYYCAQNLELPYTFGQGTKLEIK
B4: CD166-16522.15-2001 (antibody)
chain 1: B1 chain 1
chain 2: B1 chain 2 with L13A
B5: CD166-7614.7-2001 (antibody)
chain 1: B1 chain 1
chain 2: QGQSGQGLCHPLALSAWESCSSGGGSSGGSISSGLLSGRSDNHGGGSDIVMTQSPLSLPVTPGEPASISCRSSKSLLHSNGITYLYWYLQKPGQSPQLLIYQMSNLASGVPDRFSGSGSGTDFTLKISRVEAEDVGVYYCAQNLELPYTFGQGTKLEIK
B6: CD166-7614.9-2001 (antibody)
chain 1: B1 chain 1
chain 2: B5 chain 2 with A13V, W17A
B7: CD166-7614.11-2001 (antibody)
chain 1: B1 chain 1
chain 2: QGQSGQGCHPLVLSAWESCGGGSSGGSISSGLLSGRSDNHGGGSDIVMTQSPLSLPVTPGEPASISCRSSKSLLHSNGITYLYWYLQKPGQSPQLLIYQMSNLASGVPDRFSGSGSGTDFTLKISRVEAEDVGVYYCAQNLELPYTFGQGTKLEIK
B8: CD166-7614.12-2001 (antibody)
chain 1: B1 chain 1
chain 2: QGQSGQGHPLVLGGGSSGGSISSGLLSGRSDNHGGGSDIVMTQSPLSLPVTPGEPASISCRSSKSLLHSNGITYLYWYLQKPGQSPQLLIYQMSNLASGVPDRFSGSGSGTDFTLKISRVEAEDVGVYYCAQNLELPYTFGQGTKLEIK
B9: CD166-16522.17-2001 (antibody)
chain 1: B1 chain 1
chain 2: B1 chain 2 with P15A
B10: CD166-7614.10-2001 (antibody)
chain 1: B1 chain 1
chain 2: B5 chain 2 with A13V, E18A
B11: CD166-7614.5-2001 (antibody)
chain 1: B1 chain 1
chain 2: B5 chain 2 with P11A, A13V
B12: CD166-16522.16-2001 (antibody)
chain 1: B1 chain 1
chain 2: B1 chain 2 with H14A
B13: CD166-M9 antibody (mouse anti-CD166 Mab M9) (antibody, V domains shown)
VH: QVTLKESGPGILQPSQTLSLTCSFSGFSLSTYGMGVGWIRQPSGKGLEWLANIWWSEDKHYNSALKSRLTISKDTSNNQVFLKISSVDTADTATYYCVQIDYGNDYAFTYWGQGTLVTVSA
VL: DIVMTQAAFSNPVTLGTSASISCRSSKSLLHSNGITYLYWYLQKPGQSPQLLIYQMSNLASGVPDRFSSSGSGTDFTLRISRVEAEDVGVYYCAQNLELPYTFGGGTKLEIKR
notes: Obtained by mouse hybridoma technology; also called M9 mAb; muM9
B14: CD166-M9_vK3b/HcB (antibody, V domains shown)
VH: B1 chain 1
VL: DIVMTQSPLSLPVTPGEPASISCRSSQSLLHSNGITYLYWYLQKPGQSPQLLIYQMSNRASGVPDRFSSSGSGTDFTLKISRVEAEDVGVYYCAQNLELPYTFGQGTKLEIK
notes: Humanized M9
B15: CD166-M9_vK3a/HcC (antibody, V domains shown)
VH: B1 chain 1 with M84I, M87V
VL: B14 VL with S69G
notes: Humanized M9
B16: CD166-M9_vK2/HcC (antibody, V domains shown)
VH: B1 chain 1 with M84I, M87V
VL: B14 VL with Q27K, R59L
notes: Humanized M9
B17: CD166-M9_vk3a/HcB (antibody, V domains shown)
VH: B1 chain 1
VL: B14 VL with S69G
notes: Humanized M9
B18: CD166-M9_vK3b/HcC (antibody, V domains shown)
VH: B1 chain 1 with M84I, M87V
VL: B14 VL
notes: Humanized M9

Positions count from the first letter of the chain named.

In one experiment the target is T1, human CD166 protein. In words: ELISA; relative to parental CD166 M9 vk1/HcB.
Take B1: the “Fold Increase in Kd” value came to 95 fold.

Regarding B2, the “Fold Increase in Kd” value stood at 95 fold.

With B3, the “Fold Increase in Kd” value was 18 fold.

For the molecule B4, the “Fold Increase in Kd” value came to 101 fold.

Regarding B5, the “Fold Increase in Kd” value worked out at 139 fold.

For the molecule B6, the “Fold Increase in Kd” value came to 120 fold.

Turning to B7, the “Fold Increase in Kd” value is 123 fold.

Turning to B8, the “Fold Increase in Kd” value was determined as 75 fold.

With B9, the “Fold Increase in Kd” value was 14 fold.

As for B10, the “Fold Increase in Kd” value is 154 fold.

For B11, the “Fold Increase in Kd” value worked out at 112 fold.

Take B12: the “Fold Increase in Kd” value was determined as 11 fold.

The target of a further experiment is T1, human CD166 protein. In words: ELISA, human CD166 protein coated; apparent Kd. On the technique in general: In an ELISA, binding on a coated surface is turned into a signal by an enzyme label.
For B1, the Kd worked out at 424 nM.

With B2, the Kd is 422 nM.

As to B3, the Kd turned out to be 77.7 nM.

As to B4, the Kd was determined as 448 nM.

Regarding B5, the Kd stood at 619 nM.

On to B6, for which the Kd came out at 534 nM.

As to B7, the Kd amounted to 544 nM.

For B8, the Kd was 332 nM.

Take B9: the Kd was 61.6 nM.

On to B10, for which the Kd is 685 nM.

As for B11, the Kd was 495 nM.

Take B12: the Kd stood at 47.4 nM.

A further experiment addresses T1, human CD166 protein. In words: ELISA, human CD166 protein coated; positive control. The protocol: The antibody CD166-M9 antibody comprising VH of SEQ ID NO: 119, VL of SEQ ID NO: 120 was used a positive control, and an isotype control antibody was used a negative control.
Using a standard ELISA protocol, human CD166 protein was absorbed to ELISA plates and subsequently incubated with the indicated concentration of antibody. Bound antibody was detected with an anti-human FAB-peroxidase secondary.
As to B13, the binding result was “binds”.

A further experiment deals with T1, human CD166 protein. In words: ELISA, human CD166 protein coated, anti-human FAB-peroxidase.
As for B14, the binding result was “binds”.

As for B15, the binding result was “binds”.

With B16, the binding result was “binds”.

As for B17, the binding result is given as “binds”.

For B18, the binding result is given as “binds”.
